The target in assay [1] is T1, recombinant JCV VP1 protein (Mad1 strain, Abcam ab74569) (JC virus, Mad1 strain, UniProt P03089 1-354).
T1 construct: also called recombinant VP1 from Mad1 strain; VP1/JCV
The experiment in a line: method not stated.

The target in a further assay is T2, bovine serum albumin (bovine, UniProt P02769 25-607).
T2 construct: also called BSA
The experiment in a line: ELISA with crude Fab preparations.

For assay [2], the target named is T3, recombinant BKV VP1 protein (Abcam ab74567) (BK virus, UniProt P03088 1-362).
T3 sequence: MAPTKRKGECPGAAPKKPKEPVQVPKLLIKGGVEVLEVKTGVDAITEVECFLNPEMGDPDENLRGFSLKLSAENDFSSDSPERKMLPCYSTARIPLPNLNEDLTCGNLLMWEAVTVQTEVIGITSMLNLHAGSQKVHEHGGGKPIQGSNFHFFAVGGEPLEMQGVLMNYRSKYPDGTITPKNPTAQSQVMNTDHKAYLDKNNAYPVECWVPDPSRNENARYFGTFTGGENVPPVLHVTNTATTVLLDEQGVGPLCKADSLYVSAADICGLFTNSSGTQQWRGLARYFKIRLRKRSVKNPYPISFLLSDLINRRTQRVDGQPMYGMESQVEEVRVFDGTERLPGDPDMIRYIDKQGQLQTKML
Description: ELISA on recombinant JCV VP1 and recombinant BKV VP1.

For orientation: Kd means the concentration at which binding is half-saturated.

T1 sequence (P03089 whole entry): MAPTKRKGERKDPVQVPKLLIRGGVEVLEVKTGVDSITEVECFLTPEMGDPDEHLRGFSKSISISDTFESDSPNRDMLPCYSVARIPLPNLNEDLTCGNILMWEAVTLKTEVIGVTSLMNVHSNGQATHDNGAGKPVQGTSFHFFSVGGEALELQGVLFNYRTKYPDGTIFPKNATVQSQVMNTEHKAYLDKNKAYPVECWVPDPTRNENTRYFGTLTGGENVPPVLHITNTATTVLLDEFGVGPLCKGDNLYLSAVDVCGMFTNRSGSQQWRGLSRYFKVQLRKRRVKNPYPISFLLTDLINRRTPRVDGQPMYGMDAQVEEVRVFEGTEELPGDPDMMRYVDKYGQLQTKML
T2 sequence (P02769 25-607 limits assumed): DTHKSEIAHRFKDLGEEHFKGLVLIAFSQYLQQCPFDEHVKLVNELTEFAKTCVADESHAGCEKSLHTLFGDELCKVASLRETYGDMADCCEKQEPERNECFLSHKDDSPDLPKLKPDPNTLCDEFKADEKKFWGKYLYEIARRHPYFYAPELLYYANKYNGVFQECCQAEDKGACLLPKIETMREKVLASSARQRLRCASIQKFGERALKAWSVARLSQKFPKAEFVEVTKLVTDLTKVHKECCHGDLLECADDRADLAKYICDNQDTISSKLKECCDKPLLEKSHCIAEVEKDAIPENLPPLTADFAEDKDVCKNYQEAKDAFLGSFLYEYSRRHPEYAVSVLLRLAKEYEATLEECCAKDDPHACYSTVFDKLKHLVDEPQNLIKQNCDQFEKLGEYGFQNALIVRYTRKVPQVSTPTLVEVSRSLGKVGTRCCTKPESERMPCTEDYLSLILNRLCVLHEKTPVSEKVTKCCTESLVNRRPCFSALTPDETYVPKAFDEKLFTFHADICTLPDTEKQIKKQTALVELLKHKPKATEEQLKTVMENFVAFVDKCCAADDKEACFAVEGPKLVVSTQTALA

B1: GRE1 human anti-JCV VP1 monoclonal antibody (Fab, V domains shown)
VH: WGPGLVKPSQSLSLTCAVSGASVSSGINYWSWIRLYPGKGLEWIGYVYSSGTTYYNPSLKSRVSISLDTSKNQFSLNLRSVTAADTAVYYCARDRGDSSGSSYYKYYMDVWGKGTTVTVSS
VL: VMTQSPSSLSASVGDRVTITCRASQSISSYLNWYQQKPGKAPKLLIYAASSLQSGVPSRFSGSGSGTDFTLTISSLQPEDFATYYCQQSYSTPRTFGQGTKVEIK
notes: also called IgG GRE; JCV-GRE1
Consider B1, for which the dissociation constant Kd in assay [1] is about 1 nM. Further, the binding result (with bovine serum albumin; in assay [2]) was “no binding” in each case.

The values are drawn from patent US20150191530A1 (POMONA RICERCA S R L, published 2015).
